Two molecules from PMC3328432 (PLoS Biology, 2012) can be followed below.

B1: human alanine-glyoxylate aminotransferase (AGT), wild type, major allele haplotype (enzyme, UniProt P21549 1-392, looked up)
chain: MASHKLLVTPPKALLKPLSIPNQLLLGPGPSNLPPRIMAAGGLQMIGSMSKDMYQIMDEIKEGIQYVFQTRNPLTLVISGSGHCALEAALVNVLEPGDSFLVGANGIWGQRAVDIGERIGARVHPMTKDPGGHYTLQEVEEGLAQHKPVLLFLTHGESSTGVLQPLDGFGELCHRYKCLLLVDSVASLGGTPLYMDRQGIDILYSGSQKALNAPPGTSLISFSDKAKKKMYSRKTKPFSFYLDIKWLANFWGCDDQPRMYHHTIPVISLYSLRESLALIAEQGLENSWRQHREAAAYLHGRLQALGLQLFVKDPALRLPTVTTVAVPAGYDWRDIVSYVIDHFDIEIMGGLGPSTGKVLRIGLLGCNATRENVDRVTEALRAALQHCPKKKL
modifications: pyridoxal-5'-phosphate (PLP) covalently bound to Lys209
notes: Alanine-glyoxylate aminotransferase (AGT, EC 2.6.1.44), human, major allele haplotype; C-terminus at Leu392; called the complete protein; 86 kDa homodimer; In the import assay in fibroblasts the protein was EGFP-tagged (pEGFP-C1 derived); the functional row uses this molecule; also called AGT(wt); wt-EGFP-AGT (in the import assay); source: E. coli BL21(DE3) RIL, purified (Ni-NTA, TEV cleavage, …)
B2: C-terminal cargo-binding segment of human Pex5p (residues 315-639) (domain or fragment)
chain: not shown
notes: Peroxisomal import receptor Pex5p, human, residues 315-639 (seven TPR segments and C-terminal helical bundle); In the functional rows the receptor was the endogenous Pex5p of human fibroblasts; this molecule stands for it; also called Pex5p(C); Pex5p receptor; source: E. coli BL21(DE3) RIL, purified (Ni-NTA, TEV cleavage, second Ni-NTA, gel filtration); not shown: His6, N-terminal, cleaved; GST, …

Series [1] deals with the molecule itself. Description: SEC-MALS; analytical gel filtration and static light scattering (MiniDAWN); complex formed by mixing purified Pex5p(C) and AGT; single components also run.
In series [2] the target is B1. Description: ITC. As to conditions: both partners purified.
The target in series [3] is B1. Put plainly: SEC-MALS; analytical gel filtration and static light scattering (MiniDAWN); complex formed by mixing purified Pex5p(C) and AGT; single components also run. Particulars: both partners purified.
Series [4] addresses B1. Put plainly: ITC. Particulars: both partners purified. This is another data set of the same source.

Broadly, the stoichiometry N is the number of molecules, sites or subunits per partner or assembly. As usually defined, the Kd is a measure of binding affinity in units of concentration. A higher Kd goes with weaker binding.

Turning to B1, the “stoichiometry N” value in series [1] is 2.

Consider B2, for which the “stoichiometry N” value was 1 in series [2] and 1 Pex5p(C) per AGT chain in series [3]. This molecule displayed a Kd in series [4] of 3.5 ± 0.4 µM.
